Experimental data published in paper PMC2789240, “Comparative structural, kinetic and inhibitor studies of Trypanosoma brucei trypanothione reductase with T. cruzi^” (Molecular and Biochemical Parasitology, 2010).

Experiments:
[1] = substrate: N[C@@H](CCC(=O)N[C@H]1CSSC[C@H](NC(=O)CC[C@H](N)C(=O)O)C(=O)NCC(=O)NCCCNCCCCNC(=O)CNC1=O)C(=O)O; assay: 412 nm DTNB-coupled trypanothione reductase assay (IC50, Km); assay type: biochemical, Trypanosoma cruzi; conditions: other: saturating NADPH; pH 7.4; 25.0 °C
Experimental: Assay plates were prepared using a Precision2000 liquid handler (Bio-Tek) with a final DMSO concentration of 1% in all wells. Plates contained a 10-point serial dilution (2-fold or 3-fold dilutions) across columns 2–11 with a top concentration of 100 μM or 200 μM. […] Column 1 contained full signal controls (no inhibitor) and column 12 contained background controls (no enzyme).

[2] = substrate: N[C@@H](CCC(=O)N[C@H]1CSSC[C@H](NC(=O)CC[C@H](N)C(=O)O)C(=O)NCC(=O)NCCCNCCCCNC(=O)CNC1=O)C(=O)O; assay: 340 nm NADPH oxidation trypanothione reductase assay; assay type: biochemical, Trypanosoma cruzi; conditions: other: 340 nm assay; pH 7.4; 25.0 °C
Experimental: TryR was assayed spectrophotometrically either by monitoring the trypanothione-dependent oxidation of NADPH at 340 nm, or by the reduction of 5,5′-dithio-bis(2-nitrobenzoic acid) (DTNB) at 412 nm (see Fig. 1B). Assays at 340 nm were carried out at 25 °C in 500 μl volume acrylic cuvettes and changes in absorbance monitored with a UV-1601 PC spectrophotometer (Shimadzu). The standard assay mixture contained 40 mM HEPES pH 7.4, 1 mM EDTA, ∼10 mU ml^−1 TryR, 150 μM NADPH and 100 μM T(S)2. Assays at 412 nm were carried out in 96-well plates (Polysorp, Nunc) at room temperature in a volume of 200 μl. Changes in absorbance were monitored in a SpectraMax 340pc plate reader (Molecular Devices). The standard assay mixture contained 40 mM HEPES pH 7.4, 1 mM EDTA, ∼10 mU ml^−1 TryR, 150 μM NADPH, 6 μM T(S)2 and 50 μM DTNB. All assays were initiated by addition of the T(S)2. Data was collected using SoftMax Pro (molecular devices) and UVProbe 2 (Shimadzu) software, processed and analysed using Excel 2002 (Microsoft) and GraFit 5 (Erithacus Software). NADPH stock solutions were measured spectrophotometrically at 340 nm using an absorption coefficient of 6.22 × 10^3 M^−1 cm^−1[16]. The concentration of T(S)2 stock solutions were determined by measuring the oxidation of NADPH in the presence of excess TryR.
Km values with respect to T(S)2 were determined for TbTryR in both assays using purified recombinant T. cruzi TryR for comparison. Determinations for each enzyme were carried out in three independent experiments and a weighted mean calculated.

Protein	Km [1]	Km [2]	kcat [2]	kcat/Km [2]
TcTryR (recombinant T. cruzi trypanothione reductase) (Trypanosoma cruzi) (protein, made in house) MMSKIFDLVVIGAGSGGLEAAWNAATLYKKRVAVIDVQMVHGPPFFSALGGTCVNVGCVPKKLMVTGAQYMEHLRESAGFGWEFDRTTLRAEWKKLIAVKDEAVLNINKSYEEMFRDTEGLEFFLGWGSLESKNVVNVRESADPASAVKERLETENILLASGSWPHMPNIPGIEHCISSNEAFYLPEPPRRVLTVGGGFISVEFAGIFNAYKPKDGQVTLCYRGEMILRGFDHTLREELTKQLTANGIQILTKENPAKVELNADGSKSVTFESGKKMDFDLVMMAIGRSPRTKDLQLQNAGVMIKNGGVQVDEYSRTNVSNIYAIGDVTNRVMLTPVAINEAAALVDTVFGTNPRKTDHTRVASAVFSIPPIGTCGLIEEVASKRYEVVAVYLSSFTPLMHNISGSKYKTFVAKIITNHSDGTVLGVHLLGDNAPEIIQGVGICLKLNAKISDFYNTIGVHPTSAEELCSMRTPSYYYVKGEKMEKPSEASL	10.4 ± 0.3 µM			
TcTryR (Trypanosoma cruzi) (protein, made in house) MMSKIFDLVVIGAGSGGLEAAWNAATLYKKRVAVIDVQMVHGPPFFSALGGTCVNVGCVPKKLMVTGAQYMEHLRESAGFGWEFDRTTLRAEWKKLIAVKDEAVLNINKSYEEMFRDTEGLEFFLGWGSLESKNVVNVRESADPASAVKERLETENILLASGSWPHMPNIPGIEHCISSNEAFYLPEPPRRVLTVGGGFISVEFAGIFNAYKPKDGQVTLCYRGEMILRGFDHTLREELTKQLTANGIQILTKENPAKVELNADGSKSVTFESGKKMDFDLVMMAIGRSPRTKDLQLQNAGVMIKNGGVQVDEYSRTNVSNIYAIGDVTNRVMLTPVAINEAAALVDTVFGTNPRKTDHTRVASAVFSIPPIGTCGLIEEVASKRYEVVAVYLSSFTPLMHNISGSKYKTFVAKIITNHSDGTVLGVHLLGDNAPEIIQGVGICLKLNAKISDFYNTIGVHPTSAEELCSMRTPSYYYVKGEKMEKPSEASL		29.6 ± 2.8 µM	77 ± 8 s⁻¹	2.6e+06 M⁻¹ s⁻¹
